Laboratory results published in the supplement of paper PMC9732359.
± gives the uncertainty stated by the source.

Test: protein stability index of a GFP-peptide fusion (yeast GPS) (PSI 1-4); higher = more stable; sorted into four equal gates, so the index is relative within each strain
Summary of the method: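 Mid-log yeast cultures in leucine-free medium, carrying a pooled plasmid library, were sorted into four equal gates by their GFP/Cherry fluorescence ratio. Each plasmid expressed Cherry along with GFP fused upstream of a tiled 17-residue yeast protein peptide. Plasmids recovered from each gate were PCR-amplified and Illumina-sequenced, with reads assigned to strains by barcodes. The protein stability index was obtained by summing each gate's read frequency weighted by its gate number.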

Sequence | protein stability index (doa10∆) | protein stability index (pdr5∆) | protein stability index (san1∆) | protein stability index (ubr1∆)
ISALTQTEIKDIILGQN [PRP8] | 2.1 ± 0.054 | 2.51 ± 0.061 | 1.92 ± 0.077 | 1.99 ± 0.052
ISAPSMEDEILSLGMDF [BRN1] | 3.15 ± 0.057 | 3.23 ± 0.05 | 3.19 ± 0.05 | 3.12 ± 0.044
ISEINFLHESSFDSIDH [CSI1] | 2.54 ± 0.05 | 2.95 ± 0.06 | 2.51 ± 0.069 | 2.84 ± 0.041
ISEKDLVPKRCLFESLS [RPO31] | 2.59 ± 0.12 | 3.38 ± 0.15 | 2.94 ± 0.16 | 3.03 ± 0.095
ISEVMEDRNQRIKEMYW [FAS1] | 3.07 ± 0.16 | 3.3 ± 0.17 | 2.99 ± 0.12 | 2.97 ± 0.12
ISGYKKFSSTSRYMQYN [RPT1] | 1.26 ± 0.18 | 1.59 ± 0.15 | 1.56 ± 0.2 | 1.7 ± 0.11
ISIPKTCDEIQNFENDF [REC8] | 2.8 ± 0.077 | 2.92 ± 0.068 | 2.61 ± 0.056 | 2.85 ± 0.046
ISIYNMLPPKSVKFTHI [SSN2] | 1.64 ± 0.069 | 1.76 ± 0.057 | 2.13 ± 0.066 | 2.29 ± 0.034
ISKHSKQAIYTRAAASE [RPS25B] | 2.74 ± 0.055 | 2.73 ± 0.048 | 2.6 ± 0.047 | 2.86 ± 0.041
ISKLFLRGDSVIVVLKT [SMD2] | 2.87 ± 0.16 | 2.89 ± 0.2 | – | –
ISLAVEGEPVNSPNYFV [COR1] | 3.09 ± 0.14 | 2.43 ± 0.094 | 2.83 ± 0.12 | 1.99 ± 0.065
ISLSVHTLALEFVNGGK [RRP46] | 2.49 ± 0.1 | 2.79 ± 0.068 | 2.06 ± 0.08 | 2.66 ± 0.079
ISMILRNISFSDNNSRI [SWI1] | 3.02 ± 0.06 | 2.86 ± 0.059 | 2.77 ± 0.058 | 3.08 ± 0.04
ISNKDVIFKIRDRTSGQ [SRB4] | 3.42 ± 0.11 | 3.02 ± 0.13 | 3.42 ± 0.077 | 3.14 ± 0.11
ISNVIKPNQTIMVLDAS [SRP54] | 2.48 ± 0.062 | 2.56 ± 0.053 | 2.83 ± 0.06 | 2.67 ± 0.059
ISPDPNLSIDEVAVPDR [RPO31] | 2.87 ± 0.089 | 2.76 ± 0.084 | 3.23 ± 0.069 | 2.95 ± 0.049
ISPSAPSKDSFTKYKPA [YAR002W/NUP60] | 2.65 ± 0.079 | 2.9 ± 0.069 | 2.69 ± 0.094 | 2.98 ± 0.042
ISSLMFDEEFDPFKTSS [IRR1] | – | – | 2.7 ± 0.14 | 2.99 ± 0.26
ISTACPRLDDVVVDTVE [SMC4] | 3.51 ± 0.071 | 3.43 ± 0.094 | 3.3 ± 0.058 | 3.46 ± 0.093
ISTAKAWGALITTFVKR [YML103C/NUP188] | 1.82 ± 0.051 | 2.22 ± 0.051 | 1.64 ± 0.063 | 1.66 ± 0.058
ISTSFCFICLLHLANEH [BRN1] | 1.67 ± 0.12 | 1.21 ± 0.13 | – | 1.35 ± 0.13
ISVARKIYDAFPQTAML [DIS3] | 2.41 ± 0.098 | 2.4 ± 0.072 | 2.61 ± 0.14 | 2.36 ± 0.089
ITARSAFVEFGASVIAG [SWP82] | 1.93 ± 0.11 | 2.53 ± 0.085 | 1.86 ± 0.11 | 2.21 ± 0.054
ITASTLLYADSLTAEAM [CYT1] | 2.1 ± 0.064 | 2.31 ± 0.059 | 2.51 ± 0.095 | 2.18 ± 0.039
ITHAHSLSNPNSTATMQ [PGD1] | 2.8 ± 0.055 | 2.44 ± 0.054 | 2.5 ± 0.063 | 2.86 ± 0.043
ITHRDLHYDKDYNLRIY [SSN8] | 2.21 ± 0.051 | 2.1 ± 0.041 | 2.46 ± 0.043 | 2.18 ± 0.04

Sequence | protein stability index (doa10∆) | protein stability index (pdr5∆) | protein stability index (san1∆) | protein stability index (ubr1∆)
ITHTENYNDLIVNYEDL [BRN1] | 3.17 ± 0.09 | 2.94 ± 0.12 | 2.56 ± 0.14 | 3.2 ± 0.072
ITIFSPEGRLYQVEYAF [SCL1] | 2.58 ± 0.15 | 2.6 ± 0.11 | 2.1 ± 0.092 | 2.37 ± 0.068
ITKVTENLFSKEEVCQG [YMR129W/POM152] | 2.95 ± 0.085 | 2.77 ± 0.092 | 2.97 ± 0.074 | 3.06 ± 0.082
ITLALADAGIELVDMAG [MTR3] | 1.89 ± 0.072 | 2.43 ± 0.065 | 2.2 ± 0.1 | 2.12 ± 0.075
ITLRGVENIERVVMMKY [RPO21] | 2.22 ± 0.12 | 2.28 ± 0.096 | 1.23 ± 0.16 | 2.19 ± 0.076
ITSFLLSKMENVNLDDY [NAS6] | 1.95 ± 0.11 | 1.54 ± 0.052 | 1.87 ± 0.12 | 1.85 ± 0.057
ITSIMDDLALPYQHPPN [ITC1] | 3.17 ± 0.084 | 3.34 ± 0.076 | 3.08 ± 0.078 | 3.22 ± 0.048
ITSLQDSSSQCIVDFTN [YMR129W/POM152] | 2.67 ± 0.067 | 2.92 ± 0.066 | 2.69 ± 0.058 | 2.85 ± 0.059
ITVHAPLLPIVEELMKK [SNU114] | 2.38 ± 0.068 | 2.55 ± 0.054 | 2.52 ± 0.074 | 2.7 ± 0.055
ITVRYWLNGKMDSKGKI [RGR1] | 3.27 ± 0.14 | 3.51 ± 0.15 | 3.31 ± 0.23 | –
IVALTNAKDKERLQLLE [SMC3] | 3.22 ± 0.19 | 3.29 ± 0.13 | 3.01 ± 0.07 | 3.21 ± 0.11
IVERETNWIIYPLWVMA [CSN12] | 2.81 ± 0.19 | 3.42 ± 0.24 | 2.76 ± 0.24 | –
IVGKKIQEFLVVIEKRR [GRR1] | 3.23 ± 0.098 | 2.9 ± 0.098 | 3.29 ± 0.073 | 3.12 ± 0.055
IVISLKNTMFEKSDALV [SMC1] | 2.42 ± 0.071 | 2.36 ± 0.062 | 2.55 ± 0.059 | 2.47 ± 0.042
IVKRLYEYGAVSVLLIS [BRR2] | 2.57 ± 0.061 | 2.39 ± 0.055 | 2.24 ± 0.099 | 1.64 ± 0.054
IVKTTTKQRLDAYYDLE [PRP8] | 2.77 ± 0.092 | 3.28 ± 0.069 | 3.07 ± 0.05 | 3.19 ± 0.044
IVLDEVRNKSYPVYTRL [DIS3] | 2.93 ± 0.051 | 2.65 ± 0.056 | 2.99 ± 0.067 | 1.69 ± 0.027
IVMEDHGVLQGTSQNYG [MED1] | 3.11 ± 0.059 | 3.02 ± 0.067 | 3.13 ± 0.062 | 3.07 ± 0.049
IVPGTYIQERNPSQRPQ [RPS10B] | 3.01 ± 0.055 | 3.07 ± 0.045 | 3.08 ± 0.037 | 3.26 ± 0.038
IVQAKEPNLAAQQDSTN [ECM29] | 2.51 ± 0.11 | 2.88 ± 0.054 | 2.69 ± 0.1 | 2.75 ± 0.063
IVVAMTGKDCVAIACDL [PUP3] | 1.38 ± 0.062 | 1.47 ± 0.07 | 2.08 ± 0.066 | 2.31 ± 0.046
IVVVIEIITSLSMRFQR [SRB8] | 2.5 ± 0.12 | 2.71 ± 0.092 | 2.18 ± 0.084 | 2.06 ± 0.087
IWKESLIELSGGQRSLI [SMC2] | 1.75 ± 0.14 | 2.12 ± 0.091 | 1.98 ± 0.16 | 1.56 ± 0.12
IWLLSYIQYLGHLPEVS [ECM29] | 1.62 ± 0.071 | 1.9 ± 0.06 | 2.21 ± 0.063 | 1.92 ± 0.057
IYDFITLFSSIEPQVIN [ECM29] | 1.61 ± 0.07 | 2 ± 0.061 | 1.72 ± 0.18 | 2.08 ± 0.039
